Experimental data as given in patent US20230295288A1 (TILLOTTS PHARMA, published 2023).

Experiments:
TNFα [1] = biological target: T1, TNFα (human, UniProt P01375 77-233); experiment: cell-based or functional assay
[2] = biological target: T2, monomeric His-tagged human FcRn (human, UniProt P55899 24-297; P61769 21-119); experiment: SPR, pH 6.0, KD against that of Ab-wt; pH 6.0; KD ratio to Ab-wt
T2 construct: The b2m chain is an addition from general knowledge; also called hFcRn; neonatal Fc receptor
T2 sequence (P55899 24-297 limits assumed, chain 1 of 2): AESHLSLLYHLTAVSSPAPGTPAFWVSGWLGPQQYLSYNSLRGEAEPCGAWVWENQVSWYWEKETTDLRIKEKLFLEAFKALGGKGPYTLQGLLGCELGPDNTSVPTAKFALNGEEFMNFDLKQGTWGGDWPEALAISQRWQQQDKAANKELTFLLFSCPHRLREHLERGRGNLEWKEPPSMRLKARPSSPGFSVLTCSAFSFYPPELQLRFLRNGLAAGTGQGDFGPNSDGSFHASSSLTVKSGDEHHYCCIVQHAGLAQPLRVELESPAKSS
T2 sequence (P61769 21-119 limits assumed, chain 2 of 2): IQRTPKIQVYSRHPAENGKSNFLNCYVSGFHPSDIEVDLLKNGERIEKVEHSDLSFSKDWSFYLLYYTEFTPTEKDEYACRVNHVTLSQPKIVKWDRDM
Description: (§1) SPR was performed using a Biacore 3000 instrument with CM5 sensor chips coupled with anti-TNFα IgG1 antibodies (˜500 resonance units (RU)) using amine-coupling chemistry as described by the manufacturer. The coupling was performed by injecting 2.0 ug/mL of each protein in 10 mM sodium acetate, pH 4.5, using the amine-coupling kit (GE Healthcare). […] All SPR experiments were conducted at 25° C. with a flow rate of 40 ul/min. Binding data were zero-adjusted, and reference cell value subtracted. The Langmuir 1:1 ligand binding model provided by the BlAevaluation software (version 4.1) was used to determine the binding kinetics.

TNFα [3] = biological target: T1, TNFα; experiment: SPR (Biacore), antibody captured on Protein A, TNFα as analyte, single cycle kinetics, 1:1 model, 25 °C
Description: Affinity to TNFα was measured by Biacore. A CM5 chip was prepared using standard amine immobilisation Biacore procedures. Upon insertion of a CM5 chip the system was primed and then normalised with BIA-normalising solution (Biacore Preventative Maintenance Kit 2). The chip was added to the system with Phosphate Buffered Saline Tween-20 (PBS-T) running buffer; prior to immobilisation the chip surface was primed with three injections of 50 mM NaOH. Protein A was immobilised on the chip surface. For this, the protein was diluted to 5 μg/mL into 10 mM acetate buffer at pH 4.5 and injected so to generate a bound response of ˜1000 RU's in all 4 flow cells. To remove non-covalently bound material from all the chip flow cells, three 15 second 50 mM NaOH washes were performed. On the Protein A chip, antibody was captured in flow cells 2 and 4, with flow cells 1 and 3 used for reference subtraction. The trial antibodies were diluted in PBS-T to 10 nM and 2.5-7.5 uL injected to obtain 120 RU of captured antibody. […] For each single cycle analysis cycle a titration of 5 analyte concentrations were injected over the ligand and then the dissociation of the complex was measured. The surface was regenerated using glycine pH 1.7. A double referencing method was employed in which data from the ligand bound capture surface (fc 2 and 4) were subtracted from the references surfaces where no ligand was captured (fc 1 and 3 respectively). Blank injections of buffer were run every 3-4 cycles and then subtracted from analyte injection cycles, to correct for small changes in the ligand capture surface. Repeat injections of analyte at the start and end of each analytical run were used to check for sample degradation, or changes in the instrument performance. All analysis was performed at 25° C. and the sample rack was incubated at 10° C. during experimental runs. Each experiment was run at least three times. A 1-to-1 binding model was used to fit the resulting kinetic data.

CD16a(V) = biological target: T3, CD16a(V) (UniProt P08637 17-208); experiment: SPR (Biacore), His-tagged FcγR captured on anti-His chip, antibody as analyte, single cycle kinetics, 25 °C
T3 construct: Captured on an anti-His tag chip, so it carried a His tag; also called Fcγ receptor CD16a(V)
T3 sequence (P08637 17-208 F176V limits assumed): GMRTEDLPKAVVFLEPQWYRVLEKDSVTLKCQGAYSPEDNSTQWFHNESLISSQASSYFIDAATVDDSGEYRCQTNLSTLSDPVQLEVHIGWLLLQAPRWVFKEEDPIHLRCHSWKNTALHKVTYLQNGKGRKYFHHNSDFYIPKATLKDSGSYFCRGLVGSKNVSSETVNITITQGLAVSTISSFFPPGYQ
Description: (§2) Affinity to FcγRs was measured by Biacore. A CM5 chip was prepared using standard amine immobilisation Biacore procedures. Upon insertion of a CM5 chip the system was primed and then normalised with BIA-normalizing solution (Biacore Preventative Maintenance Kit 2). The chip was added to the system with PBS-T running buffer; prior to immobilisation the chip surface was primed with three injections of 50 mM NaOH. FcγRs were immobilised on the chip surface using a His-tag capture system. The anti-His tag chip was prepared according to the Biacore kit instructions, with ˜12000 RU's of the antibody deposited on all 4 flow cells. To remove non-covalently bound material from all the chip flow cells, three 30 second 10 mM glycine pH 1.5 washes were performed. The Fcγ receptors were diluted in PBS-T to a range of 0.5-2 μg/mL, with 2.5-5.0 μL injected onto the chip generating capture levels between 60 and 200 RU's. Antibodies were diluted into PBS-T prior to analysis. Single cycle kinetics were used to estimate the steady state affinity. For each single cycle analysis cycle a titration of 5 antibody concentrations were injected over the FcγR ligand and then the dissociation of the complex was measured. The surface was regenerated using the recommended solution, 10 mM glycine pH 1.5 for the anti-His capture surface. A double referencing method was employed in which data from the ligand bound capture surface (fc 2 and 4) were subtracted from the references surfaces where no ligand was captured (fc 1 and 3 respectively). Blank injections of buffer were run for every antibody titration cycle and then subtracted from analyte injection cycles, to correct for small changes in the ligand capture surface. All analysis was performed at 25° C. and the sample rack was incubated at 10° C. during experimental runs. Each experiment was run at least three times.

CD16a(F) = biological target: T4, CD16a(F) (UniProt P08637 17-208); experiment: as above
T4 construct: Captured on an anti-His tag chip, so it carried a His tag
T4 sequence (P08637 17-208 limits assumed): as the sequence (P08637 17-208 F176V limits assumed) above, with V160F counted along it
Description: as §2

CD16b(NA2) = biological target: T5, CD16b(NA2) (UniProt O75015 17-200, limits assumed); experiment: as above
T5 construct: Captured on an anti-His tag chip, so it carried a His tag
T5 sequence (O75015 17-200 N65S limits assumed): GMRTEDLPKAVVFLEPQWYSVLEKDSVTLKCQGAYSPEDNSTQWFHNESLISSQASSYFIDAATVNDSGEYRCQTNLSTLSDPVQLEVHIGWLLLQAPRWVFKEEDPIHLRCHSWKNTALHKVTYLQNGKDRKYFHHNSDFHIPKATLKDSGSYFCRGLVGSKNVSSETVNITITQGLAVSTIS
Description: as §2

[4] = biological target: T2, monomeric His-tagged human FcRn; experiment: SPR (Biacore 3000), antibody amine-coupled, monomeric His-tagged hFcRn as analyte, pH 6.0, 1:1 Langmuir model, 25 °C; pH 6.0
Description: as §1

[5] = biological target: T2, monomeric His-tagged human FcRn; experiment: SPR, pH 6.0, KD against that of infliximab; pH 6.0; KD ratio to IFX
Description: as §1

T1 sequence (P01375 77-233 limits assumed): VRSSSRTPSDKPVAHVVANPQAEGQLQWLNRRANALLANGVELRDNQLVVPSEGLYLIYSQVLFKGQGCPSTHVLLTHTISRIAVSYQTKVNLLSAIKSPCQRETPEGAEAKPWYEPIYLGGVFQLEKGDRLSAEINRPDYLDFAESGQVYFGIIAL

B1: Ab-A-DLE-PVAΔG (antibody, human IgG1, kappa)
heavy: EVQLVESGGGLVQPGGSLRLSCKASGIDFNNYGIGWVRQAPGKGLEWITYIYPGFAITNFANSVKGRFTISSDNSKNTVYLQMNSLRAEDTAVYYCARDPVYATSSGYFDLWGQGTLVTVSSASTKGPSVFPLAPSSKSTSGGTAALGCLVKDYFPEPVTVSWNSGALTSGVHTFPAVLQSSGLYSLSSVVTVPSSSLGTQTYICNVNHKPSNTKVDKKVEPKSCDKTHTCPPCPAPPVAGPDVFLFPPKPKDTLMISRTPEVTCVVVDVSHEDPEVKFNWYVDGVEVHNAKTKPREEQYNSTYRVVSVLTVLHQDWLNGKEYKCKVSNKALPLPEEKTISKAKGQPREPQVYTLPPSREEMTKNQVSLTCLVKGFYPSDIAVEWESNGQPENNYKTTPPVLDSDGSFFLYSKLTVDKSRWQQGNVFSCSVMHEALHAHYTQKSLSLSPGK
light: DIQMTQSPSSLSASVGDRVTIKCQASQSIFSGLAWYQQKPGKAPKLLIYGASKLASGVPSRFSGSGSGTEFTLTISGLQPADFATYYCQSYYYSSSSSDGSYAFGGGTKLTVLGRTVAAPSVFIFPPSDEQLKSGTASVVCLLNNFYPREAKVQWKVDNALQSGNSQESVTEQDSKDSTYSLSSTLTLSKADYEKHKVYACEVTHQGLSSPVTKSFNRGEC
With B1 the “IC50 (read off the curve), L929 TNFα neutralisation [upper panel]” value (TNFα [1]) was ~7 ng/mL, the “Fold change from wt” value [2] was 6.4 fold and the Kd (TNFα [3]) was 2.88 pM. It also gave a koff (TNFα [3]) of 3.04e-05 s⁻¹, a kon (TNFα [3]) of 1.13e+07 M⁻¹ s⁻¹ and a Kd (CD16a(V)) of 68.7 nM. For the same binder, the Kd (CD16a(F)) was 110 nM, the Kd (CD16b(NA2)) was 470 nM and the Kd [4] was 157 nM. The “Fold change from IFX” value [5] was 2.7 fold.

B2: Ab-wt (antibody, human IgG1, kappa)
heavy: not shown
light: DIQMTQSPSSLSASVGDRVTIKCQASQSIFSGLAWYQQKPGKAPKLLIYGASKLASGVPSRFSGSGSGTEFTLTISGLQPADFATYYCQSYYYSSSSSDGSYAFGGGTKLTVLGRTVAAPSVFIFPPSDEQLKSGTASVVCLLNNFYPREAKVQWKVDNALQSGNSQESVTEQDSKDSTYSLSSTLTLSKADYEKHKVYACEVTHQGLSSPVTKSFNRGEC
notes: Human IgG1 anti-TNFα antibody with a wild-type Fc region; also called parent antibody; wild-type antibody
B2 was tested, and the “IC50 (read off the curve), L929 TNFα neutralisation [lower panel]” value (shortened to “IC50 (read off the curve) … [lower panel]”) (TNFα [1]) was ~7 ng/mL, the Kd (TNFα [3]) was 4.13 pM and the koff (TNFα [3]) was 3.45e-05 s⁻¹. The kon (TNFα [3]) was 8.37e+06 M⁻¹ s⁻¹, the Kd (CD16a(V)) was 184 nM and the Kd (CD16b(NA2)) was > 3000 nM. It also gave a Kd [4] of 1000 nM.

B3: Ab-YTE-DLE-PVAΔG (antibody, human IgG1, kappa)
heavy: EVQLVESGGGLVQPGGSLRLSCKASGIDFNNYGIGWVRQAPGKGLEWITYIYPGFAITNFANSVKGRFTISSDNSKNTVYLQMNSLRAEDTAVYYCARDPVYATSSGYFDLWGQGTLVTVSSASTKGPSVFPLAPSSKSTSGGTAALGCLVKDYFPEPVTVSWNSGALTSGVHTFPAVLQSSGLYSLSSVVTVPSSSLGTQTYICNVNHKPSNTKVDKKVEPKSCDKTHTCPPCPAPPVAGPDVFLFPPKPKDTLYITREPEVTCVVVDVSHEDPEVKFNWYVDGVEVHNAKTKPREEQYNSTYRVVSVLTVLHQDWLNGKEYKCKVSNKALPLPEEKTISKAKGQPREPQVYTLPPSREEMTKNQVSLTCLVKGFYPSDIAVEWESNGQPENNYKTTPPVLDSDGSFFLYSKLTVDKSRWQQGNVFSCSVMHEALHNHYTQKSLSLSPGK
light: DIQMTQSPSSLSASVGDRVTIKCQASQSIFSGLAWYQQKPGKAPKLLIYGASKLASGVPSRFSGSGSGTEFTLTISGLQPADFATYYCQSYYYSSSSSDGSYAFGGGTKLTVLGRTVAAPSVFIFPPSDEQLKSGTASVVCLLNNFYPREAKVQWKVDNALQSGNSQESVTEQDSKDSTYSLSSTLTLSKADYEKHKVYACEVTHQGLSSPVTKSFNRGEC
B3 was tested, and the “IC50 (read off the curve) … [lower panel]” value (TNFα [1]) was ~6 ng/mL, the “Fold change from wt” value [2] was 11.1 fold and the Kd (TNFα [3]) was 1.57 pM. The koff (TNFα [3]) was 1.28e-05 s⁻¹, the kon (TNFα [3]) was 8.14e+06 M⁻¹ s⁻¹ and the Kd (CD16a(V)) was 117 nM. For the same binder, the Kd (CD16b(NA2)) was 1030 nM, the Kd [4] was 90 nM and the “Fold change from IFX” value [5] was 4.7 fold.

B4: Ab-A-AEA-PVAΔG (antibody, human IgG1, kappa)
heavy: EVQLVESGGGLVQPGGSLRLSCKASGIDFNNYGIGWVRQAPGKGLEWITYIYPGFAITNFANSVKGRFTISSDNSKNTVYLQMNSLRAEDTAVYYCARDPVYATSSGYFDLWGQGTLVTVSSASTKGPSVFPLAPSSKSTSGGTAALGCLVKDYFPEPVTVSWNSGALTSGVHTFPAVLQSSGLYSLSSVVTVPSSSLGTQTYICNVNHKPSNTKVDKKVEPKSCDKTHTCPPCPAPPVAGPSVFLFPPKPKDTLMISRTPEVTCVVVDVSHEDPEVKFNWYVDGVEVHNAKTKPREEQYNSTYRVVSVLTVLHQDWLNGKEYKCKVSNAALPAPEAKTISKAKGQPREPQVYTLPPSREEMTKNQVSLTCLVKGFYPSDIAVEWESNGQPENNYKTTPPVLDSDGSFFLYSKLTVDKSRWQQGNVFSCSVMHEALHAHYTQKSLSLSPGK
light: DIQMTQSPSSLSASVGDRVTIKCQASQSIFSGLAWYQQKPGKAPKLLIYGASKLASGVPSRFSGSGSGTEFTLTISGLQPADFATYYCQSYYYSSSSSDGSYAFGGGTKLTVLGRTVAAPSVFIFPPSDEQLKSGTASVVCLLNNFYPREAKVQWKVDNALQSGNSQESVTEQDSKDSTYSLSSTLTLSKADYEKHKVYACEVTHQGLSSPVTKSFNRGEC
In the case of B4, the “IC50 (read off the curve) … [lower panel]” value (TNFα [1]) is reported as ~9 ng/mL, the Kd (TNFα [3]) is reported as 2.51 pM and the koff (TNFα [3]) is reported as 2.19e-05 s⁻¹. For the same binder, the kon (TNFα [3]) was 9.16e+06 M⁻¹ s⁻¹, the Kd (CD16a(V)) was 260 nM and the Kd (CD16b(NA2)) was 5180 nM.
